Measurements from article PMC6692446, “Characterization of H/D exchange in type 1 pili by proton-detected solid-state NMR and molecular dynamics simulations” (Journal of Biomolecular Nmr, 2019).

Target: the molecule itself
Assay: H/D exchange followed by proton-detected solid-state NMR; pre-assembled reprotonated pili washed four times with 100% D2O buffer (10 mM sodium phosphate pH 7.0, 0.02% sodium azide), each with 4 h at room temperature; peak volumes of 3D (H)CANH spectra of redeuterated and reprotonated pili compared; 40 kHz MAS, 16.4 T, 17 °C; protection assigned to intra- or intermolecular contacts on the cryo-EM structure PDB 5OH0

B1: FimA, type 1 pilus rod subunit (recombinant, assembled in vitro into type 1 pili) (natural protein, Escherichia coli, UniProt P04128 24-182, looked up)
chain: AATTVNGGTVHFKGEVVNAACAVDAGSVDQTVQLGQVRTASLAQEGATSSAVGFNIQLNDCDTNVASKAAVAFLGTAIDAGHTNVLALQSSAAGSATNVGVQILDRTGAALTLDGATFSSETTLNNGTNTIPFQARYFATGAATPGAANADATFKVQYQ
notes: FimA, major subunit of the type 1 pilus rod of Escherichia coli; Uniformly [2H,13C,15N]-labelled, proton back-exchanged at labile sites; Intramolecular disulfide Cys21-Cys61; In the pilus each subunit's N-terminal donor strand complements the neighbouring subunit; also called polymerized FimA; reprotonated pili
- binding result: binds
